# Laboratory results from article PMC8663791 (2021).
# T1: GAD65 113-132 peptide on HLA-DRB1*04:01 (human)
# T1 peptide: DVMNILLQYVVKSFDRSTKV
# T2: ZNT8 1-20 peptide on HLA-DRB1*04:01 (human)
# T2 peptide: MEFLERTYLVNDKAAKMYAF
# T3: GAD65 353-372 peptide on HLA-DRB1*04:01 (human)
# T3 peptide: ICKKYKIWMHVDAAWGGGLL
# T4: GAD65 105-124 peptide on HLA-DRB1*04:01 (human)
# T4 peptide: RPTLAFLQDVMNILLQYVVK
# T5: ZNT8 266-285 peptide on HLA-DRB1*04:01 (human)
# T5 peptide: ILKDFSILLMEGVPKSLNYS
# T6: GAD65 553-572 peptide on HLA-DRB1*04:01 (human)
# T6 peptide: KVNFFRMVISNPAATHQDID
# B1: Clone_478 (TCR)
# alpha TRAV3 TRAJ28 CDR3: CAVRDMRGAGSYQLTF
# beta TRBV6-5 TRBJ2-7 CDR3: CASSLGTGTGVYEQYF
# B2: Clone_262 (TCR)
# alpha TRAV12-3 TRAJ29 CDR3: CAMEGGRYNTPLVF
# beta TRBV5-6 TRBJ1-1 CDR3: CASSVNRGHNTEAFF
# B3: Clone_2062 (TCR)
# alpha TRAV20 TRAJ39 CDR3: CAVQAGNAGNMLTF
# beta TRBV7-6 TRBJ2-2 CDR3: CASASGVVGELFF
# B4: Clone_1826 (TCR)
# alpha TRAV13-2 TRAJ20 CDR3: CAENRSDYKLSF
# beta TRBV28 TRBJ2-5 CDR3: CASSSQGQGKETQYF
# B5: Clone_2312 (TCR)
# alpha TRAV14DV4 TRAJ15 CDR3: CAMREMNQAGTALIF
# beta TRBV6-2 TRBJ1-5 CDR3: CASTKGGTHQPQHF
# B6: Clone_2353 (TCR)
# alpha TRAV26-2 TRAJ48 CDR3: CILRDTISNFGNEKLTF
# beta TRBV7-9 TRBJ1-2 CDR3: CASSFGSSYYGYTF
# B7: Clone_904 (TCR)
# alpha TRAV9-2 TRAJ52 CDR3: CALSDYSGTSYGKLTF
# beta TRBV11-2 TRBJ2-1 CDR3: CASSLIPYNEQFF
# B8: Clone_2073 (TCR)
# alpha TRAV8-6 TRAJ57 CDR3: CAVKLQGGSEKLVF
# beta TRBV2 TRBJ1-5 CDR3: CASKYNRGEQPQHF
# B9: Clone_2356 (TCR)
# alpha TRAV25 TRAJ36 CDR3: CAGQTGANNLFF
# beta TRBV4-3 TRBJ1-5 CDR3: CASSQEVGTVPNQPQHF
# B10: Clone_300 (TCR)
# alpha TRAV17 TRAJ22 CDR3: CATDSSSGSARQLTF
# beta TRBV5-1 TRBJ2-7 CDR3: CASSLVGGRVDWREQYF
# B11: Clone_855 (TCR)
# alpha TRAV8-2 TRAJ27 CDR3: CVVSVGTNAGKSTF
# beta TRBV11-3 TRBJ2-2 CDR3: CASSFSGELFF
# B12: Clone_667 (TCR)
# alpha TRAV5 TRAJ7 CDR3: CAERLYGNNRLAF
# beta TRBV6-1 TRBJ2-7 CDR3: CASTLLWGGDSYEQYF
# B13: Clone_640 (TCR)
# alpha TRAV41 TRAJ49 CDR3: CAAAGNQFYF
# beta TRBV12-4 TRBJ2-1 CDR3: CASSFTYNEQFF
# B14: Clone_295 (TCR)
# alpha TRAV5 TRAJ22 CDR3: CAESTSGSARQLTF
# beta TRBV30 TRBJ2-1 CDR3: CAWMGGYNEQFF
# B15: Clone_271 (TCR)
# alpha TRAV20 TRAJ39 CDR3: CAVQAGNAGNMLTF
# beta TRBV7-6 TRBJ2-2 CDR3: CASSLGVTGELFF
# B16: Clone_839 (TCR)
# alpha TRAV17 TRAJ6 CDR3: CATDEGGSYIPTF
# beta TRBV11-3 TRBJ2-2 CDR3: CASSFSGELFF
# B17: Clone_1662 (TCR)
# alpha TRAV13-1 TRAJ41 CDR3: CAASGANSGYALNF
# beta TRBV30 TRBJ2-5 CDR3: CAWSAQGETQYF
# B18: Clone_5 (TCR)
# alpha TRAV3 TRAJ13 CDR3: CAVRDSFSGGYQKVTF
# beta TRBV12-4 TRBJ2-7 CDR3: CASSPLAGAWSYEQYF
# B19: Clone_578 (TCR)
# alpha TRAV8-3 TRAJ32 CDR3: CAVGAGYGGATNKLIF
# beta TRBV12-3 TRBJ2-7 CDR3: CASSFRGGGNPYEQYF
# B20: Clone_896 (TCR)
# alpha TRAV12-2 TRAJ15 CDR3: CAVNPNQAGTALIF
# beta TRBV6-6 TRBJ1-5 CDR3: CASAPQEAQPQHF
# Experiments:
# Assay in all cases: activation reporter or marker
# [1] = biological target: GAD65 265-284 peptide on HLA-DRB1*04:01 (human)
# [2] = biological target: T1, GAD65 113-132 peptide on HLA-DRB1*04:01
# [3] = biological target: T2, ZNT8 1-20 peptide on HLA-DRB1*04:01
# [4] = biological target: T3, GAD65 353-372 peptide on HLA-DRB1*04:01
# [5] = biological target: IGRP 305-324 peptide on HLA-DRB1*04:01 (human)
# [6] = biological target: T4, GAD65 105-124 peptide on HLA-DRB1*04:01
# [7] = biological target: IGRP 241-260 peptide on HLA-DRB1*04:01 (human)
# [8] = biological target: T5, ZNT8 266-285 peptide on HLA-DRB1*04:01
# [9] = biological target: T6, GAD65 553-572 peptide on HLA-DRB1*04:01
binder,measurement,setting,value
B1,binding result,[1],recognises
B2,binding result,[2],recognises
B3,binding result,[2],recognises
B4,binding result,[3],recognises
B5,binding result,[4],recognises
B6,binding result,[5],recognises
B7,binding result,[2],recognises
B8,binding result,[6],recognises
B9,binding result,[5],recognises
B10,binding result,[5],recognises
B11,binding result,[7],recognises
B12,binding result,[2],recognises
B13,binding result,[2],recognises
B14,binding result,[8],recognises
B15,binding result,[2],recognises
B16,binding result,[2],recognises
B17,binding result,[3],recognises
B18,binding result,[5],recognises
B19,binding result,[9],recognises
B20,binding result,[7],recognises
